# Target: human IL-23 (human) (UniProt P29460)
# Experiment: cell-based or functional assay
# Sequence of human IL-23 (human) (chain, as listed by the source limits assumed, chain 1 of 2): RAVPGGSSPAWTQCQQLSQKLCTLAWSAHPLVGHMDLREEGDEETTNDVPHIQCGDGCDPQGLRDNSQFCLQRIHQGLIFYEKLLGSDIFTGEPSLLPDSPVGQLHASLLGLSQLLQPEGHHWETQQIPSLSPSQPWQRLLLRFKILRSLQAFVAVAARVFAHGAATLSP
# Sequence of human IL-23 (human) (P29460 23-328 limits assumed, chain 2 of 2): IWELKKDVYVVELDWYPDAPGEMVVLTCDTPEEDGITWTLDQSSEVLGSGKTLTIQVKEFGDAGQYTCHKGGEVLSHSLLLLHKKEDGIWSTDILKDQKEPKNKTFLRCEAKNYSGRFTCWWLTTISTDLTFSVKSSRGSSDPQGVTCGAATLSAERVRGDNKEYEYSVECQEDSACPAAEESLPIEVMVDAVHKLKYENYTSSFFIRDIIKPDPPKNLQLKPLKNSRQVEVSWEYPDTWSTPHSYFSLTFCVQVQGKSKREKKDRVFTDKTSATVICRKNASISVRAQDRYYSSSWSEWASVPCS
substance,measurement,value
isotype control antibody,"Ct value, murine IL-17A mRNA in skin injected with human IL-23 (in vivo neutralization)",35.4 Ct
same,"Ct value, murine IL-17F mRNA in skin injected with human IL-23 (in vivo neutralization)",31.6 Ct

# Reference: US20170275356A1
